Experimental findings from publication PMC4349660 are described below.

The target in experiment [1] is Glycophorin A, native, on intact unmodified human erythrocytes (human (endogenous in erythrocytes)) (UniProt P02724). Kind of experiment: backscattering interferometry (BSI); free solution, label-free; intact erythrocytes at 0.1% haematocrit in 0.01% BSA-PBS, PfEBA175 dilution series up to 1 μM, 1 h at room temperature; reference: neuraminidase-treated erythrocytes, subtracted; square hyperbolic fit.

Experiment [2] has as its target Basigin, native, on intact unmodified human erythrocytes (human (endogenous in erythrocytes)). Kind of experiment: backscattering interferometry (BSI); free solution, label-free; intact erythrocytes at 0.1% haematocrit in 0.01% BSA-PBS, PfRH5 dilution series up to 4.5 μM, 1 h at room temperature; reference: erythrocytes pre-incubated with 10 μg/mL anti-BSG antibody MEM-M6/6, subtracted; square hyperbolic fit.

One may read the Kd as the equilibrium constant for the complex coming apart. A low value points to tighter binding.

As to “PfEBA175, entire ectodomain, monomeric Cd4-tagged recombinant protein (ligand)”, the Kd in experiment [1] was determined as 50 nM.

As for “PfRH5, entire ectodomain, Cd4-tagged monomer (ligand)”, the Kd in experiment [2] turned out to be 1100 nM.
